Data: a protein production outcome set (Wang et al. 2014)

Experiment: label from the status in PepcDB records

## MIGMDHLAIGTYEGFLIGYDIDTQPNDPKTTTGCTLRYAYAAHERSIRCIAGSFPILASASVDESIKVYQLDQLQELATLYDLQVPVNSVDIQLQGGLLSGGEDGKLVYYPYGGWSKPKYLKGHKGNVHSVALHPTGQICLSVARDKCLKLWKTNGDCVCSLELPDEAFIVKWTEDGQGWVIATQTSFSVHSLQTGLIQQWEYSTRLVCLCALTNDIFVVGGMDGHLRVGENKPIQVHKVDGGSLVKGIGVGRDGCIYSLSSKGVLEMVAPSRQLEIQNGVVKRYIE
  protein production: failed

## MENDSSIQWEHSHDFGLDNKLHENKVKTVFWLTTVIMVLEIGAGTWSGSMALLADGWHMGTHSAAFLIAIFAYSYAKKHANNKDFSFGTGKVNSLGGFASAIALAIVALMMIVESVQRLLEPQSIHFNEAIVVAIIGLVVNVASVFILHDDHHHHGEHHHDHDHNMKAAYFHVLADTLTSLLAIVALLIGKYVGLIWMDPLMGIVGAIVILRWSYGLIKDSSNVLLDKSVKKSTLEQISKALSKKNTVINDIHVWTIATAHQAAILKVTSAQPLNSDEYEGILREILPQLSHISIEIRHDYSL
  protein production: failed

## MSSEHSANGGPASAYGKPTFARASTPLPIQSAHMASDPIQITPSLTIPPSELVERFVRASGAGGQNVNKVSTAVELRFDVAGSPSLPEPLRARLLSRRDRRMTAEGVLVIDAQRFRTQDRNRDDARERLAEIISACLSVPKRRVATKPSHGAKLRRLDAKRERSHIKRGRSASHWE
  protein production: failed

## MRKLRKLLLFSTVLFVVFTQLFGFIITVDAAETATINLSAEKQVIRGFGGMNHPVWISDLTPQQRDTAFGNGEGQLGFTILRIHVDENRNNWSKEVATARRAIELGAIVFASPWNPPSNMVETFTRNGVPNQKRLRYDKYGDYVQHLNDFVAYMKSNGVDLYAISVQNEPDYAHEWTWWTPQEMLRFMRDYAGQINCRVMAPESFQYLKNMSDPILNDPQALANLDILGAHFYGTTVNNMPYPLFEQKGAGKELWMTEVYVPNSDSNSADRWPEALEVAHNMHNALVEGNFQAYVWWYIRRSYGPMKEDGTISKRGYMMAHYSKFVRPGYVRVDATKNPTYNVYLSAYKNKKDNSVVAVVINKSTEAKTINISVPGTSIRKWERYVTTGSKNLRKESDINASGTTFQVTLEPQSVTTFVGGGSSEPQIPVERNAFSKIECEEYNATNSSTVQVVGTGTGSGLGYIENGNYFAYKNINFGNGANSFKIRAATTGTPKIEIRLGSPTGTLAGTLQVAATGGFNAYEEQSCSINKITGVQDVYLVFGGAVNVDWFTFESKQEPTFKYGDLNGDGNVNSTDSTLMSRYLLGIITTLPAGEKAADLNGDGKVNSTDYNILKRYLLKYIDKFPVES
  protein production: failed

## MVGQVIRKRGAYPEYTVEDVLAVIFLLKEPLGRKQISERLELGEGSVRTLLRKLSHLDIIRSKQRGHFLTLKGKEIRDKLLSMFSEPIGVSVDGYPGIAIVVKNPPEFKSIELRDEAIKFDAKGAMILTVKDNEIVFPEDFRPLKEMYPEVAKKIVDYEDGDAVIITWAETPAKALKSAIHVAYILKKEEITPEILEVVK
  protein production: not failed

## MSFKEEQVIKHHQDLANKSVSTFLLLGLDNSGKRKLSTSRTDGMMVVIVNHKTKTITLCSLLRDTFTKIYSQQYHGYQRIETAYTYGGDAAAVATVEHFLKLPIDYYVTLNWDGFIQAINDIGPLSVRVDRAFVGQNYWGHAVHFKAGLQEMNGARALAYARERHVDNDQYRGFRQQAVLYALLKRLNQGALVAKGSQIMGDVKGQVRTNMSEGDMLSLIKYRTVLKHYRVKRVTFQWRTFDTAGRSMVEVYPDSRQHTIAELQAAAGRRAPLEHHHHHH
  protein production: failed

## MSLFIALCGLILAGRLILKNYNPQGVLFFVGIVMMTISIFTNNATFVDKSTGWIGFDVFEYISMVFGKQSGGLGLKIMLIGGFALLMSAIGASQVMVKLTAKPLMKLNSPYLMLALAFILGQMLSLFISSATGLGLLLMATLYPVLIRLGCSKAGVASVLASTCAIEFGPGSGNSILAAQTAGLEITEYFVGEQLPIISVLIIVVAIMHAITQRFFDRNDEKNQTLEPINYEDIESEQSAPFYYVILPMLPLFFMLTFSSLGVKTINVGMATAIILSIFISLVFEFIREREVKPVFEKLQGVFDDMGKVFASVVTLIIAGQTFSMGLKSIGAIDSMLHMASSVGLSAAVIILFMALLTFIISALMGSGNAAFFSFAPMVPQIAHKIGANTVDMILPIQLSAGFGRTISPIAGVIIAVAGISGLSPFDIVRRTLIPMVSGWLLMLILTFSKGGQLEQLMPFLIVILVLSVGVGWIMKRKNNRTQLTQ
  protein production: failed

## MDNKKLFVFIKYFTLVFMIVGIIFGGKEFNAQNITLMLILIINHQLRTFSLNKYIHKIISFILEIVLVVICNFWISGYLFTYLILLAIDANVMFKKFLASTFNVVIILIGVYFSFNYSLNYKIMNLGVSIIIIAVFYFNKYENEKKIEAQDLYDRLRISEEKLKKANRDLEMYASSVEELTLLRERNRISREIHDSVGHSLSTMVIQLGAIEKIIRKAPEKAELLTKNLRKFTQKSLDEVRAAVRAIKPKEFEEYEGILSIEELISNFKKMANIDVRLAFTKEKWSLNSDQSFVLYRIVQEFLSNSARHGRASRVDVIMAFSEKNLLVTLKDNGQGCQSIIEGVGMKSMRERVKELGGYFEYKTAPYEGFTVKIELAKREKLKVYSGGENNG
  protein production: failed

## MASRDAQEPSLHAADPSIVRPCEQHGGVLAGSVSSHPAAAECASHTPTLETGAPCAAGSAPSAPMTDQGARSPRAADSMPASSLERDERARRIACRLPSSAIRLPAFGEAVSRPNAGSSVDATATKASLPSAGDDGLGNSREEQGTTCSEPDLHGVPENDQVEVCVGGRGILRPRSYQRQAPQRCGLPGMAPETAARPDHTARNELEEALARQRARLAEPDASGDIHGRHAG
  protein production: failed

## MTKTWEQLSAIQPIGVKMLMNSIAKERISHAYLLEGEKGTGKFATAIQMAKSFLCSQRNRVEPCHVCTNCKRIDSGNHPNLHIVKPDGLSIKKQQIHDLQEEFSKTGLEANKKVYIIEHADRMTANAANALLKFLEEPSSDTTAILLTEQSHQILNTILSRCQVVTFRPLPTESLIRRLQDEGITVSLSTLAAQLTNSFDEALTLCNDEWFAQARALVIKLCEALEKDKASIFFVQEKWGKHFGEKEQLQQGLDMLLLIYKDLLYVQLGEEDRLVFREQKEMFESFSYAQKRIVSALFNILEAKNRINANVNAQLVFEQLVLRLQEG
  protein production: failed

## MLKSKIKEEYVQMDQVDWKPFPAAFSTGGIRWKLLHVSPEMGSWTAIFDCPAGSSFAAHVHVGPGEYFLTKGKMDVRGGKAAGGDTAIAPGYGYESANARHDKTEFPVASEFYMSFLGPLTFVKPDGSPIAVIGWEDAQGAWAA
  protein production: not failed

## MKFSRFRDSKLFFWTIEILAVVAILFVLLQMKYIFSPIGIIVSTLFMPILVAGFLFYLFNPLVLFLEKRKVPRLLSVIVIFIAFITLVVLAVMQLGPTLADQVAELAKAIPGYWQDFEKWLQGLSNNSALKDIDMKQELEKLNISLPKIMSVVVDGVASSFGAIVSFVSSFVMILVTVPFIVFYMFKDGHKFVESSGKFFPAGIRSEAKQIIKEMNKTISTYISSQAIDCMFVGLFTFIGYLIIGQPYALLFGFIAGATNIIPYLGPFIGAAPAVIVALFTSPVQALLVIVVVTIVQQIDSNLLSPYIMGKSLSIHPLTIIIILIVAGNLAGIFGMILGVPLYAVVKTIIVNVNRLIKLRRGQLAIDNNLPNPDTPKK
  protein production: not failed

## MKASFKGKFDVDKSGSVASLTFNAGNAKLRATMTDASFVAGPSFNGLSLAVEKPGFFIIDYNVPKKDVRFQFMNTIRIAEKPLNLTYIHMRGDNRTIVDGSFVIDPANKLSANYMVGTKNCKLKYTYVHGGIATFEPCYDVAKNMWDFAISHKLYGGDNLKATYQTSSKMLGLEWSNNSKSTGSFKVCASMNLAEELKPPKLTAETTWNLEL
  protein production: not failed

## MPEISPYVTKTEVQLMMAGLDYRKTNGSRDTAPKGQLPWIVDAAQAIADSTFIRVHIERKYDVDLDFGLTGRERAQAWAIERMIENQLGWVSTYFRFLEPANFERGPARAFDQAPGHLRDELRQGLREAVAANIRAVGVGRHLREEVAWLGGLSLRALDELLEDKAYLMRDAYPVGVDATAFAMLAAIMTPFFDSPLRRQAERYPRLVAYVGRMMERFYPAHPWGLRQAA
  protein production: failed

## MGVLAEVYEMLNTCNRCGFCHTACKTYKVDGAETMVSRGRVQLIKAVADGVIEADADYEDSINSCLLCGECAVACPSGVSAKELVMAARRDLKLRHGVKPFVKSYALKTLANPNKLERAFKLFGGLGKNVLNKVDGMDYFRGVDIKGMNVAKVPFLNQVPERILVAQPKHKVAFYVGCFLNFSLDDTAHSVVKVLTKNDCEVIIPKEQVCCGLPQYAYGDFETAKVNARKTIDTFMAKDVEAIITACGSCAAMLKEDYLKLFADDAAYLPRVKSFCAKVKEFSEYMAEIGVDESKFHNSTPVKVTYHDPCHMVRGIKVTAQPRQMLKSLPRVEYIEMFEANRCCGASGLVQAFYHEMSTKVTREKAKNIQDSGAEVVATSCPACIMRLQGGVSMAGQKQKVMHVADLMAKAYEN
  protein production: failed

## MTRRRKILTGVLALVVLAAGGLAAARALGPGGTRVTAYFDRAIGVYAGSDLRILGVRVGEVESVDPEGTRVRVGLRLDDGIKVPEDARAVVVAPSVVADRYVQLTPAYRTGPALADGAVLPASRNHVPVEIDQIYDSITELGDALGPDGANADGALSELLRTGADNLDGNGEAIGDGVEQFGKAAKTLDGSSGDLFETLSSLQTFTTMLKNKDTDVRTAQERLDEVVSFFADNKDDLTGALEELGKALGQVKTFIEDNRGELKKNVDRLVPITRTLVEQRASLAEALDVAPLAADNVVNAYNPDTRTLDGRANLNEISSGGPLLPLPVAGTEKGEGRLEHHHHHH
  protein production: not failed

## RLPEVAHLLARVHNSELLHRMLRKVGGQSVRPQDFIQQYLQDLPDDLRHHPLMARVLDELRGTAPTLPATDYRVCHGDLNHKNWLLSDRQQLYLVDWDSARFADPASDISMLLCEYVPLSDWQQWLSEYGETMTTALRTRVVWYAKINLLLNIKDNYYRNQYHQMNHEIIFLEELSQYEV
  protein production: failed

## MIILRRLSKEKHHQVNPLWHIYRKIKFVKVLKQTLIIEIARFVPSMKLKNKIYKKLLKMDVGNHTSFAYKVLPDLFYPEYISVGKNTVIGYNTTILTHEVLVDEWRVGKVIIGDYTLIGANTTILPGITIGNHVKIGAGTVVSKDVPDYSFAFGNPMQIQLDSGGDNEWHKKKITSFQ
  protein production: failed

## MNFVTLTSDEFNAFTTKHFSHYTQSAIHYNHRVDLKGDVHLVGVKDDNGQVIAGCLLTEARTLKFFKYFYTHRGPVMDYTNQSLVAFFFKALTSYLKKHNCLYVLVDPYLIENLRNADGEIVKSYDNRAFVRTMDKLGYKHQGFPVGYDSMSQIRWLSVLDLKDKTEDQLLKEMDYQTRRNIKKTYDIGVKTKTLTIDETQTFFDLFHMAEEKHGFKFRELPYFEEMQKLYDDHAMLKLAYIDLNEYLKTLQLKQQQLTAELSGVEEALEESPNSKKNKTKRTQLEQQLNSNKRKIDNTIEQIEQDGAVLNLASALFIYNEHEVYYLSSGSNPKYNAYMGAYHLQWEMIKFAKAHHIDRYNFYGITGDFSESSEDYGVQQFKKGFNAHVEEYIGDFIKPIKPLLYKVQTYLNHKRR
  protein production: failed

## MRSYAIGDIHGHLSLLQEIHGRIAADRARTGDDEAPVVHIGDLVDRGPDSRGVVEYLRQGIEQGENWVVLKGNHDRMFAGFLRDPAHQDPGLRGDLSWLHPRLGGGPTLESYGVAHAADRPVAIVHREAVALVPAEHVAFIEALPAVYRRDEALFVHAGIRPGVPLAEQIEDDLVWIREPFLSDPRDHGMLVVHGHTAIDAVTHYGNRLNLDSGAAYGGPLSAVVIEGRSVWQLGPEGRRPIALEHHHHHH
  protein production: failed

## MAGNFWQSSHYLQWILDKQDLLKERQKDLKFLSEEEYWKLQIFFTNVIQALGEHLKLRQQVIATATVYFKRFYARYSLKSIDPVLMAPTCVFLASKVEEFGVVSNTRLIAAATSVLKTRFSYAFPKEFPYRMNHILECEFYLLELMDCCLIVYHPYRPLLQYVQDMGQEDMLLPLAWRIVNDTYRTDLCLLYPPFMIALACLHVACVVQQKDARQWFAELSVDMEKILEIIRVILKLYEQWKNFDERKEMATILSKMPKPKPPPNSEGEQGPNGSQNSSYSQS
  protein production: not failed
